# Laboratory results published in patent US20220323583A1, “Pharmaceutical Formulations of Bi-Specific Diabodies and Use of the Same” (MacroGenics, Inc., priority 2019, published 2022).
# T1: Human CD123-His (Homo sapiens, UniProt P26951)
# T1 sequence (P26951 19-378): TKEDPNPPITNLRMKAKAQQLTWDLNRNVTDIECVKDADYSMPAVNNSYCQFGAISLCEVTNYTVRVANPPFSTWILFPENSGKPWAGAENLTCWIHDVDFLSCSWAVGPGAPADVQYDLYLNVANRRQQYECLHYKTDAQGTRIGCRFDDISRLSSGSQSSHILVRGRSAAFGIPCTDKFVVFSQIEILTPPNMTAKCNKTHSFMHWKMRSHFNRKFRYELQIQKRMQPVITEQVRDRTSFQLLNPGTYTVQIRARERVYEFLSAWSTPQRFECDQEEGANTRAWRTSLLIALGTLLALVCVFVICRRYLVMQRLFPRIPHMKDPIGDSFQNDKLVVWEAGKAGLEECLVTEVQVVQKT
# T2: soluble recombinant human IL-3 receptor alpha (rhIL3Rα) (Homo sapiens, UniProt P26951)
# T2 construct: soluble recombinant human IL-3 receptor alpha (rhIL3Rα)
# T2 sequence (P26951 19-305 limits assumed): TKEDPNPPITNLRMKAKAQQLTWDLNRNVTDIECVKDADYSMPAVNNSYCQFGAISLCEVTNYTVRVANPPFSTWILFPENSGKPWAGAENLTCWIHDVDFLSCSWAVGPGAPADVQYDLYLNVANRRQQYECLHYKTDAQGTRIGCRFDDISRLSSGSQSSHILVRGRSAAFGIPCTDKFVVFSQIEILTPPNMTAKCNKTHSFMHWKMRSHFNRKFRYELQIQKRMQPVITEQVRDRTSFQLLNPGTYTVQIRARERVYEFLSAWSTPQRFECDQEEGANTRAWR
# What was measured:
# [1] = Visual appearance; format: physicochemical; settings: for Appearance / Appearance, Particulates: 1250 ng/mL dosing solution
# [2] = tested on: Kasumi-3; assay: Redirected killing of target cell line; format: cell-based, human
# [3] = tested on: RS4-11; assay: Redirected killing of target cell line; format: cell-based
# [4] = tested on: Cynomolgus CD123-His; assay: Binding of DART-A to CD123 (ka, kd, KD); design: species or system cynomolgus monkey
# [5] = target: T1, Human CD123-His; assay: Binding of DART-A to CD123 (ka, kd, KD)
# [6] = tested on: CD123+ cells; assay: DART-A infusion in cynomolgus monkeys; format: in vivo
# Source text: Upregulation of granzyme B and perforin levels in both CD8 and CD4 T cells was observed.
# A decrease in circulating T cells also occurred, but recovered to baseline before the subsequent infusion in monkeys on the 4-day dose schedule, consistent with DART-A-mediated mobilization.
# [7] = target: T2, soluble recombinant human IL-3 receptor alpha (rhIL3Rα); assay: ELISA (rhIL3Rα) DART-A quantitation assay (concentration, protein recovery); settings: for Actual Concentration: target 20 ng/mL
# Procedure: In brief, the assay plate was coated with soluble recombinant human IL-3 receptor alpha (rhIL3Rα) overnight. […] After addition of MSD Read Buffer, the plate was inserted into the Sector Imager 2400 Plate Reader. When a voltage was applied to the plate electrodes, the bound Sulfo-TAG label produces an ECL signal, which was captured by the plate reader. A quantitative measure of the ECL signal emitted by each well was recorded, and the ECL counts emitted by the standard calibrators were used to generate a standard curve using a 4-parameter logistic (4PL) fit.
# [8] = Capillary isoelectric focusing (cIEF), charge variants; format: physicochemical; settings: for cIEF % AV (acidic variants) / cIEF % BV (basic variants) / cIEF % Main Peak: 0.1 mg/mL solution, Stabilizer 2
# Procedure: cIEF analysis was performed to characterize drug product charge variants. The configuration included a iCE System with Alcott 720NV Autosampler. Samples were prepared to a final concentration of 0.1 mg/mL and centrifuged at 5±3° C. for 40 minutes prior to analysis.
# [9] = tested on: soluble recombinant human CD3 (shCD3-Fos-Jun); assay: CD3 binding ELISA (relative potency); settings: Relative Potency vs DART-A reference standard, 1250 ng/mL dosing solution, Stabilizer 2
# Source text: The two CD3 chains (delta and gamma) contain either the Fos protein or the Jun protein to enhance proper folding and functionality of the CD3 complex. […] The soluble CD3-Fos-Jun, was coated on the surface of an ELISA plate. […] Quantification of bound probe antibody was achieved by addition of a colorimetric AP substrate (AP-Yellow 1 Component Substrate). Oxidation of AP-Yellow by AP yields a colored product that can be read at 405±10 nm. The assay was quantified by the intensity of color, measured using a spectrophotometer set to an optimal wavelength of 405±10 nm. Data were fitted to a four-parameter model with the following variable constraints: the maximum, minimum and slope of each dose response curve is set to be shared between all dose response curves on the plate; the EC50 was determined independently for each curve.
# [10] = 10 ng/mL dosing solution, Stabilizer 2, Post Infusion (Infusion Time = 48 Hrs)
# [11] = 10 ng/mL dosing solution, Stabilizer 2, Post Storage (T = 72 Hrs), room temperature
# [12] = 10 ng/mL dosing solution, Stabilizer 2, T = 0
# [13] = 20 ng/mL dosing solution, Stabilizer 2, Post Infusion (Infusion Time = 96 Hrs)
# [14] = 20 ng/mL dosing solution, Stabilizer 2, Post Storage (T =72 Hrs), room temperature
# [15] = 20 ng/mL dosing solution, Stabilizer 2, T = 0
# [16] = Stabilizer 2, Post Infusion (Infusion Time = 48 Hrs)
# [17] = Stabilizer 2, Post Storage (T = 72 Hrs), room temperature
# [18] = Post Infusion (Infusion Time = 96 Hrs)
# [19] = Post Storage (Time = 72 Hrs), room temperature
# soluble recombinant human CD3 (shCD3-Fos-Jun), sequence (P07766 23-126 limits assumed): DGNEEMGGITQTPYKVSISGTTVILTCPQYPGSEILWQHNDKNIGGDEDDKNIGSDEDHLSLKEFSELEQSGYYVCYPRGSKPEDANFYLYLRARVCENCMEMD
molecule,measurement,setting,value
"DART-A: sequence-optimized CD123×CD3 bispecific diabody; chains SEQ ID NO:42 and SEQ ID NO:44 covalently bonded by a disulfide bond (protein, interchain disulfide bond; First Polypeptide Chain of DART-A; Second Polypeptide Chain of DART-A) chain 1: QAVVTQEPSLTVSPGGTVTLTCRSSTGAVTTSNYANWVQQKPGQAPRGLIGGTNKRAPWTPARFSGSLLGGKAALTITGAQAEDEADYYCALWYSNLWVFGGGTKLTVLGGGGSGGGGEVQLVQSGAELKKPGASVKVSCKASGYTFTDYYMKWVRQAPGQGLEWIGDIIPSNGATFYNQKFKGRVTITVDKSTSTAYMELSSLRSEDTAVYYCARSHLLRASWFAYWGQGTLVTVSSGGCGGGEVAALEKEVAALEKEVAALEKEVAALEK chain 2: DFVMTQSPDSLAVSLGERVTMSCKSSQSLLNSGNQKNYLTWYQQKPGQPPKLLIYWASTRESGVPDRFSGSGSGTDFTLTISSLQAEDVAVYYCQNDYSYPYTFGQGTKLEIKGGGSGGGGEVQLVESGGGLVQPGGSLRLSCAASGFTFSTYAMNWVRQAPGKGLEWVGRIRSKYNNYATYYADSVKDRFTISRDDSKNSLYLQMNSLKTEDTAVYYCVRHGNFGNSYVSWFAYWGQGTLVTVSSGGCGGGKVAALKEKVAALKEKVAALKEKVAALKE",Visual Appearance,[1]; [10],"C, L"
same,"Visual Appearance, Particulates",[1]; [10],"FNP, FPP"
same,Visual Appearance,[1]; [11],"C, L"
same,"Visual Appearance, Particulates",[1]; [11],"FNP, FPP"
same,Visual Appearance,[1]; [12],"C, L"
same,"Visual Appearance, Particulates",[1]; [12],"FNP, FPP"
same,Visual Appearance,[1]; [13],"C, L"
same,"Visual Appearance, Particulates",[1]; [13],"FNP, FPP"
same,Visual Appearance,[1]; [14],"C, L"
same,"Visual Appearance, Particulates",[1]; [14],"FNP, FPP"
same,Visual Appearance,[1]; [15],"C, L"
same,"Visual Appearance, Particulates",[1]; [15],"FNP, FPP"
same,Appearance,[1]; [16],"C, L"
same,"Appearance, Particulates",[1]; [16],"FNP, FPP"
same,Appearance,[1]; [17],"C, L"
same,"Appearance, Particulates",[1]; [17],"FNP, FPP"
same,Appearance,"[1]; Stabilizer 2, T = 0","C, L"
same,"Appearance, Particulates","[1]; Stabilizer 2, T = 0","FNP, FPP"
same,Visual Appearance,"[1]; 0.1 mg/mL in Stabilizer 2 dosing solution, storage and administration",No change in visual appearance
same,visual appearance of dosing solutions,"[1]; Stabilizer 2 in saline bag, T=0, after 72 h storage and post infusion (48 or 96 hours)","clear, colorless with no visible particulates"
same,Max % Killing,[2],94%
same,Max % Killing,[3],60%
same,ka (± SD),[4],1.5 (± 0.3) × 10^6 M^−1s^−1
same,kd (± SD),[4],4.0 (± 0.7) × 10^−4 s^−1
same,ka (± SD),[5],1.6 (± 0.4) × 10^6 M^−1s^−1
same,kd (± SD),[5],1.9 (± 0.4) × 10^−4 s^−1
same,"levels of cytokines interferon-gamma, TNF-alpha, IL-6, IL-5, IL-4 and IL-2",[6]; DART-A-treated animals,No elevation
same,pDC depletion after infusion,[6]; as little as 10 ng/kg DART-A,depleted as early as 4 days post infusion
same,circulating CD123+ cells,"[6]; infused 4 or 7 days a week, weekly escalating doses",depletion of circulating CD123+ cells 72 h after treatment initiation
same,Toxicity,"[6]; infused 4 or 7 days a week, weekly escalating doses, 4 weeks",limited to a minimal transient release of cytokines
same,Actual Concentration,"[7]; Final PS80 0.1 mg/mL, Post 24 Hr Storage and 96 Hr Admin",19.3 ng/mL
same,Actual Concentration,"[7]; Final PS80 0.1 mg/mL, T0",19.9 ng/mL
same,Actual Concentration,"[7]; Final PS80 0.12 mg/mL, Post 24 Hr Storage and 96 Hr Admin",20.6 ng/mL
same,Actual Concentration,"[7]; Final PS80 0.12 mg/mL, T0",21.6 ng/mL
same,DART-A Concentration derived from quantitation assay,"[7]; Study 1, Stabilizer 1, dual-pump infusion RT, High (5000 ng/mL), Expected or Control (T0)",313.7 ng/mL
same,DART-A Concentration derived from quantitation assay,"[7]; Study 1, Stabilizer 1, dual-pump infusion RT, High (5000 ng/mL), T = 24 hours",235.2 ng/mL
same,DART-A Concentration derived from quantitation assay,"[7]; Study 1, Stabilizer 1, dual-pump infusion RT, High (5000 ng/mL), T = 48 hours",294.3 ng/mL
same,DART-A Concentration derived from quantitation assay,"[7]; Study 1, Stabilizer 1, dual-pump infusion RT, High (5000 ng/mL), T = 72 hours",254.4 ng/mL
same,DART-A Concentration derived from quantitation assay,"[7]; Study 1, Stabilizer 1, dual-pump infusion RT, Low (100 ng/mL), Expected or Control (T0)",10.6 ng/mL
same,DART-A Concentration derived from quantitation assay,"[7]; Study 1, Stabilizer 1, dual-pump infusion RT, Low (100 ng/mL), T = 24 hours",6.7 ng/mL
same,DART-A Concentration derived from quantitation assay,"[7]; Study 1, Stabilizer 1, dual-pump infusion RT, Low (100 ng/mL), T = 48 hours",12.9 ng/mL
same,DART-A Concentration derived from quantitation assay,"[7]; Study 1, Stabilizer 1, dual-pump infusion RT, Low (100 ng/mL), T = 72 hours",11.0 ng/mL
same,"concentration as prepared, DART-A quantitation assay","[7]; Study 1, high concentration (target 5000 ng/mL)",5067.5 ng/mL
same,"concentration as prepared, DART-A quantitation assay","[7]; Study 1, low concentration (target 100 ng/mL)",116.7 ng/mL
same,DART-A Concentration derived from quantitation assay,"[7]; Study 2, Stabilizer 1, cassette 25° C., 100 rpm, High (5000 ng/mL), T = 0",5398.7 ng/mL
same,DART-A Concentration derived from quantitation assay,"[7]; Study 2, Stabilizer 1, cassette 25° C., 100 rpm, High (5000 ng/mL), T = 24 hours",5241.2 ng/mL
same,DART-A Concentration derived from quantitation assay,"[7]; Study 2, Stabilizer 1, cassette 25° C., 100 rpm, High (5000 ng/mL), T = 48 hours",4967.5 ng/mL
same,DART-A Concentration derived from quantitation assay,"[7]; Study 2, Stabilizer 1, cassette 25° C., 100 rpm, High (5000 ng/mL), T = 72 hours",4916.7 ng/mL
same,DART-A Concentration derived from quantitation assay,"[7]; Study 2, Stabilizer 1, cassette 25° C., 100 rpm, Low (100 ng/mL), T = 0",110.1 ng/mL
same,DART-A Concentration derived from quantitation assay,"[7]; Study 2, Stabilizer 1, cassette 25° C., 100 rpm, Low (100 ng/mL), T = 24 hours",115.5 ng/mL
same,DART-A Concentration derived from quantitation assay,"[7]; Study 2, Stabilizer 1, cassette 25° C., 100 rpm, Low (100 ng/mL), T = 48 hours",103.8 ng/mL
same,DART-A Concentration derived from quantitation assay,"[7]; Study 2, Stabilizer 1, cassette 25° C., 100 rpm, Low (100 ng/mL), T = 72 hours",106.2 ng/mL
same,DART-A Concentration derived from quantitation assay,"[7]; Study 3, Stabilizer 1, cassette 37° C., 100 rpm, Low (100 ng/mL), T = 0",111.4 ng/mL
same,DART-A Concentration derived from quantitation assay,"[7]; Study 3, Stabilizer 1, cassette 37° C., 100 rpm, Low (100 ng/mL), T = 72 hours",99.4 ng/mL
same,DART-A Concentration derived from quantitation assay,"[7]; Study 3, Stabilizer 1, cassette 37° C., 100 rpm, second group, target concentration not given, T = 0",5682.9 ng/mL
same,DART-A Concentration derived from quantitation assay,"[7]; Study 3, Stabilizer 1, cassette 37° C., 100 rpm, second group, target concentration not given, T = 72 hours",4661.6 ng/mL
same,charge heterogeneity by cIEF,"[8]; 0.1 mg/mL in Stabilizer 2 dosing solution, 72-hour RT storage and administration",minor changes within the variability of the analytical method
same,cIEF % AV (acidic variants),[8]; [18],31.4%
same,cIEF % BV (basic variants),[8]; [18],3.4%
same,cIEF % Main Peak,[8]; [18],65.2%
same,cIEF % AV (acidic variants),[8]; [19],29.1%
same,cIEF % BV (basic variants),[8]; [19],3.9%
same,cIEF % Main Peak,[8]; [19],67.0%
same,cIEF % AV (acidic variants),[8]; T = 0 Hrs,28.3%
same,cIEF % BV (basic variants),[8]; T = 0 Hrs,4.4%
same,cIEF % Main Peak,[8]; T = 0 Hrs,67.3%
same,"% Potency, CD3 binding",[9]; Post Infusion (Infusion Time = 48 Hrs),92%
same,"% Potency, CD3 binding","[9]; Post Storage (T = 72 Hrs), room temperature",101%
same,"% Potency, CD3 binding",[9]; T = 0,111%
